These results are taken from US20220242958A1, “BISPECIFIC NANOBODIES” (Ablynx N.V., priority 2013, published 2022).

The target in one assay is T1, CXCR4-VLP (Homo sapiens, UniProt P61073).
T1 construct: purchased Integral Molecular (printed 'Molecular Integral')
Description: ELISA binding to CXCR4 viral lipoparticles (VLP). The protocol:
Binding of CXCR4 Nanobodies to CXCR4-expressing cells was assessed on different cell lines, to assess EC50 values. For CXCR4 the membrane insertion is needed for proper conformation and functionality of the receptor. Therefore CXCR4 Nanobodies were characterized for binding to viral lipoparticles (VLP; Molecular Integral) expressing CXCR4 versus control lipoparticles in ELISA. To this end VLPs were coated at 0.5 U/well overnight at 4° C. using anti-myc antibodies for detection. Over all different binding assays, Nanobody 14D09 always exerted lower binding affinity than 14A02, as indicated by a shift in EC50 values. The results are depicted in FIG. 1.3.
To assess if the formatting into bispecific constructs affected the target binding capacity of the individual Nanobodies, the bispecific Nanobodies were analysed for binding to recombinant IL-3Ra (R&D Systems) in ELISA and to CXCR4 viral lipoparticles (Integral Molecular). […] However, CXCR4 binding of constructs with either CXCR4#1 or CXCR4#2 is retained only in one orientation, when the CXCR4 Nanobody is at the N-terminal position. The bispecific constructs where the CXCR4 Nanobody is positioned C-terminal show a 50-100-fold loss in binding to CXCR4-VLPs.
A general note: In an ELISA, binding on a coated surface is turned into a signal by an enzyme label.

Assay [1] addresses T2, CXCR4 on Caki-CXCR4 cells (Homo sapiens, UniProt P61073).
T2 construct: expressed in transfected cells; host or cells: Caki-CXCR4
Briefly: Biotinylated SDF-1 displacement on Caki-CXCR4 cells (flow cytometry). Type of assay: binding. The settings on record: 30 nM biotinylated SDF-1; read-out: Ligand competition Biotin-SDF-1 IC50. Here is the method: CXCR4 Nanobodies were analysed for their ability to compete with the ligand CXCL12 (or SDF-1a) for receptor binding, by displacement of biotinylated SDF-1 on Caki-CXCR4 cells in flow cytometry. To this end serial dilutions of Nanobodies were incubated with 30 nM of biotinylated SDF-1 (R&D Systems Fluorokine kit) on cells, after which ligand binding was visualised using extravidin-PE. The biotin-SDF-1 competitor concentration used in this assay was below the EC50 value obtained in dose-titration, where IC50 values should reflect the Ki.

The target in assay [2] is T2, CXCR4 on Caki-CXCR4 cells. Description: Binding of CXCR4 Nanobodies to Caki-CXCR4 cells.
Another assay has as its target T3, CXCR4 on MOLM-13 cells (Homo sapiens, UniProt P61073).
T3 construct: endogenous in cells; host or cells: MOLM-13
Description: CXCL12/SDF-1a induced chemotaxis of MOLM-13 cells. Type of assay: cell-based. The settings on record: average of 2-3 independent experiments; unit inferred; read-out: MOLM-13 IC50, inhibition of CXCL-12 induced chemotaxis. The protocol: (§1) To verify if bispecific CXCR4-IL3Ra polypeptides show increased affinity and potency on cells expressing both receptors, a CXCR4-dependent functional assay was carried out. To this end SDF-1a dependent chemotaxis on Jurkat E6-1 (CXCR4+/IL3Ra−), and MOLM-13 cells (CXCR4+/IL3Ra+) was performed for direct comparison of cells expressing both or only one receptor. Since the functional blockade is only mediated via CXCR4, avidity by the simultaneous binding of the anti-IL3Ra Nanobody® is expected to translate into increased potency in inhibition of chemotaxis.
Bispecific polypeptides were analyzed for inhibition of CXCL12-induced chemotaxis on cells endogenously expressing CXCR4. As chemoattractant a concentration of 750 pM SDF-1a was used on 100,000 cells/well for the Jurkat cell line, and 500,000 cells/well for the MOLM-13 cell line. On each plate the corresponding monovalent CXCR4 Nanobody was included as reference, allowing to calculate the fold increase of the bispecific within each plate. As additional control 1:1 mixtures of monovalent Nanobodies were included. In Table 9 the respective IC50 values are shown (average of n=3 experiments). […]
Dose-dependent inhibition of CXCL12-induced chemotaxis by the panel of bispecific CD4-CXCR4 Nanobodies was determined on Jurkat (CXCR4+/CD4 low), and Molm-13 cells (CXCR4++/CD4++). […]

Assay [3] addresses T4, CXCR4 on Jurkat E6-1 cells (Homo sapiens, UniProt P61073).
T4 construct: endogenous in cells; host or cells: Jurkat E6-1
Description: CXCL12/SDF-1a induced chemotaxis of Jurkat E6-1 cells. Format: cell-based. Here is the method: as §1
Bispecific polypeptides were analyzed for inhibition of CXCL12-induced chemotaxis on cells endogenously expressing CXCR4. As chemoattractant a concentration of 750 pM SDF-1a was used on 100,000 cells/well for the Jurkat cell line, and 500,000 cells/well for the MOLM-13 cell line. On each plate the corresponding monovalent CXCR4 Nanobody was included as reference, allowing to calculate the fold increase of the bispecific within each plate. As additional control 1:1 mixtures of monovalent Nanobodies were included. In Table 9 the respective IC50 values are shown (average of n=3 experiments).
To verify if bispecific CXCR4-IL-3Ra polypeptides show increased affinity and potency on cells expressing both receptors, a CXCR4-dependent functional assay was done. Since MOLM-13 cells express CD4 in conjunction with CXCR4 and CD123, the same experimental set-up was used as described for the CXCR4-CD123 bispecific Nanobodies (see: Example 1.5.5).
Dose-dependent inhibition of CXCL12-induced chemotaxis by the panel of bispecific CD4-CXCR4 Nanobodies was determined on Jurkat (CXCR4+/CD4 low), and Molm-13 cells (CXCR4++/CD4++). As reference anti-CXCR4 antibody 12G5 was included on each plate. […] Remarkably, bispecific constructs in the inverse orientation were able to block CXCR4 function, despite their reduced affinity for CXCR4 due to the unfavourable position, although the blockade was partial. The much larger potency increases observed with Nanobodies targeting the CD4 and CXCR4 combination is most likely related to the higher relative expression levels of CD4 compared to CD123 on the Molm-13 cells.

In the next assay the target is T5, CXCR4 on Jurkat cells (Homo sapiens, UniProt P61073).
T5 construct: endogenous in cells; host or cells: Jurkat E6-1
Briefly: Binding of CXCR4 Nanobodies to Jurkat cells.

The target of assay [4] is T6, human IL-23R extracellular domain Fc-fusion (Homo sapiens, UniProt Q5VWK5).
T6 construct: Fc-fusions of human IL12Rβ1, IL12Rβ2 and IL-23R extracellular domains; purchased R&D Systems #1400-IR
T6 sequence (Q5VWK5 24-355 limits assumed): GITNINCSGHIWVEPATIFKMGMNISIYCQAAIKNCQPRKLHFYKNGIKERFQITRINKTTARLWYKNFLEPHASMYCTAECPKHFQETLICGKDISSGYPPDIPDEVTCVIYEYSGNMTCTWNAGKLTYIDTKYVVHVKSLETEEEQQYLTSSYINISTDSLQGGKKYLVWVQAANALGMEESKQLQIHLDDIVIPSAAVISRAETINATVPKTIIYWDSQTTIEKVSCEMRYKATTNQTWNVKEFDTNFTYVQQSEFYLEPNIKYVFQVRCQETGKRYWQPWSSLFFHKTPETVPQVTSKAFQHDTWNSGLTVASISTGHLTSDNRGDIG
Briefly: SPR (Biacore T100) on IL-23R-Fc. Type of assay: binding. Here is the method: The precise binding affinities of the purified Nanobodies were determined in a multi-cycle kinetic analysis using Surface Plasmon Resonance analysis (Biacore T100) on Fc-fusions of human IL12Rβ1, IL12Rβ2 and IL-23R extracellular domains (R&D Systems, #839-B1, #1959-B2, #1400-IR). Sensorchips CM5 were immobilized with anti-hIgG antibody (GE Healthcare, BR-1008-39), after which receptors were captured at 5 μg/ml protein and contact time of 120 seconds. Running buffer used was HBS-EP+ (GE Healthcare, BR-1006-69) at 25° C., with a flow-rate of […]. For immobilization by amine coupling, EDC/NHS was used for activation and ethanolamine HCl for deactivation (Biacore, amine coupling kit). Nanobodies were evaluated at a concentration range between 1.37 nM and 3 μM. Nanobodies were allowed to associate for 2 min and to dissociate for 15 min at a flow rate of […]. In between injections, the surfaces were regenerated with a 3 min pulse of 3M MgCl2 and 2 min stabilization period. Evaluation of the association/dissociation data was performed by fitting a 1:1 interaction model (Langmuir binding model) by Biacore TWO software v2.0.3.
(In general: In SPR one partner is held on a chip, and binding of the other changes the refractive index at the surface.)

The target in assay [5] is T7, IL23R on Th17 differentiated T cells (Homo sapiens, UniProt Q5VWK5).
T7 construct: endogenous in cells; host or cells: T cells within human PBMCs differentiated towards Th17
T7 sequence (Q5VWK5 24-629): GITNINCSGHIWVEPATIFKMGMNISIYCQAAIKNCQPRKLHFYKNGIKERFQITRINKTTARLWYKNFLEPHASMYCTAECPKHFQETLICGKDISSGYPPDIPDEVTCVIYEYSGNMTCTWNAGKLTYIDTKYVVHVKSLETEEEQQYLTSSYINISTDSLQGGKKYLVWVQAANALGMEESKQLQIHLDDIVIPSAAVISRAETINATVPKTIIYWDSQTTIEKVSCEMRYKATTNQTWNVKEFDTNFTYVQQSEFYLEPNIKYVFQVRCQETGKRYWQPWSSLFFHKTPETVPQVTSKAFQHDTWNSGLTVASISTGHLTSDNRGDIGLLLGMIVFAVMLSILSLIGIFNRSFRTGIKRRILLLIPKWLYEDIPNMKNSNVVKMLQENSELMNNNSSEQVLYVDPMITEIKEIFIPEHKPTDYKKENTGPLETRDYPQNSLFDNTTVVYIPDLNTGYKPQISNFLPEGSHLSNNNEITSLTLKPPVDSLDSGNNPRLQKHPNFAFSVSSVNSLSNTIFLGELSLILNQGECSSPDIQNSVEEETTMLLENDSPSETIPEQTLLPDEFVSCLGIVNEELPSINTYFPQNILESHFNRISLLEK
Briefly: Flow cytometry binding to T cells differentiated towards Th17 phenotype. The settings on record: IL23R Nanobodies on Th17 differentiated cells. Here is the method:
As the expression of IL23R was very low in the T cell pool, the binding of monovalent IL23R Nanobodies was assessed on cells that were differentiated towards the Th17 phenotype by the incubation of PBMCs in the presence of a cytokine cocktail and IL-23, recombinant IL-6 (eBioscience #34-8069-82), recombinant TGF-b1 (R&D #240-B), anti-human IL-4 antibody(BD#554481), recombinant IL-1b (BD#554602)) and recombinant Human IL-23 (R&D Systems #219-IL-005) with co-stimulation of plate coated OKT-3 (eBioscience #16-0037-85), PeliCluster CD28 (Sanquin #M1650). Following this procedure, low but detectable IL23R expression levels were obtained. Optimization in the Th17 differentiation protocol could further increase these expression levels.
Dose-dependent binding of monovalent Nanobodies was assessed by flow cytometry on the respective Th1 or Th17 enriched T cell populations. Serial dilutions of antibody or Nanobodies were allowed to associate for 30 minutes at 4° C. in FACS buffer (PBS supplemented with 10% FBS and 0.05% azide). Cells were washed by centrifugation and probed with anti-FLAG antibodies (Sigma F1804) for 30 minutes at 4° C., to detect bound Nanobody. Detection was done with Goat anti-Mouse IgG-PE (Jackson ImmunoResearch #115-116-071) for 30 minutes at 4° C. […] The cells were then analysed via a BD FACSArray.
For orientation: In flow cytometry, cells or beads pass a laser one at a time.

The test system of assay [6] is IL-23 dependent IL-17 release, human PBMCs. Briefly: IL-23 dependent IL-17 release in human PBMCs. Type of assay: cell-based. Conditions: 9 days; donor D840. Here is the method:
In this assay set-up human PBMCs were cultured in the presence of soluble IL23 to allow differentiation of T cells towards the Th17 phenotype. Cells were seeded onto OKT-3 (eBioscience #16-0037-85) coated plates in the presence of recombinant human IL-23 (eBioscience #14-8239) and PeliCluster CD28 (Sanquin #M1650) in solution. Cytokine (IL17) release in the presence or absence of the respectively Nanobodies was determined by ELISA after an incubation period of 9 days.
Dose-dependent inhibition of the panel of bispecific IL23R-CD4 and IL12Rβ1-CD4 polypeptides was assessed in comparison to the respective monovalent Nanobodies, with in this case the IL12Rβ1-CD4 specific polypeptides serving as negative controls. […] There is a preference for the IL12Rβ1 building block in the C-terminal position from CD4 in this assay. There is a clear difference in potency between the two IL12Rβ1 family members, corresponding to the different binding kinetics and affinities, and this difference is preserved in the potency of the bispecific constructs.

Like-named read-outs stand apart in the source and are kept apart here.

T4 sequence (P61073 whole entry): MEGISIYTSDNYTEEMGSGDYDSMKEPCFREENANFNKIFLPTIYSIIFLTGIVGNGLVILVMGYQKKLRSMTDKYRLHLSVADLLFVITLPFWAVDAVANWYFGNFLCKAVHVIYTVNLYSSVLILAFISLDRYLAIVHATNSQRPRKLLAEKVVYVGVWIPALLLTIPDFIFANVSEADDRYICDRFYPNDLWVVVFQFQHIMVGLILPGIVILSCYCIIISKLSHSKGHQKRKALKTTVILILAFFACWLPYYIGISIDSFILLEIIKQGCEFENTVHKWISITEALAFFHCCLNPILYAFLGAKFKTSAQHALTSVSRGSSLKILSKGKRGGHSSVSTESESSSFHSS
T2 sequence (P61073 whole entry): as above
T5 sequence (P61073 whole entry): as above
T1 sequence (P61073 whole entry): as above
T3 sequence (P61073 whole entry): as above

B1: CXCR4#1: anti-CXCR4 Nanobody, SEQ ID NO: 1 (protein)
VHH: EVQLVESGGGLVQAGGSLRLSCVASGISSSKRNMGWYRQAPGKQRESVATISSGGNKDYTDAVKDRFTISRDTTKNTVYLQMNSLKPEDTAVYYCKIEAGTGWATRRGYTYWGQGTQVTVSS
What is called EC50 is the concentration at which the effect is half-maximal. As usually defined, the IC50 is the point on the concentration scale where inhibition reaches its midpoint. For the molecule B1, the EC50 worked out at 7.28 nM with CXCR4-VLP, 9.9 nM in assay [2] and 11 nM in the assay with CXCR4 on Jurkat cells. The IC50 worked out at 18.4 nM in assay [1]; 8.62 nM with CXCR4 on MOLM-13 cells; 10.4 nM in assay [3] (average of 2-3 independent experiments, unit inferred, read-out: Jurkat E6-1 IC50, inhibition of CXCL-12 induced chemotaxis); 10 nM in assay [3] (cell line not stated, read-out: IC50 of monovalent CXCR4 Nanobody (chemotaxis potency)); 11 nM in assay [3] (monovalent CXCR4 Nanobodies, Table 4, read-out: Chemotaxis Jurkat IC50).

B2: IL23R#20: IL-23R specific ligand competing Nanobody (protein)
VHH: EVQLVESGGGLVQAGGSLRLSCAASGRTFSSYAMGWFRQAPGKDREFVAAISWIGESTYYADSVKGRFTISRDNAKNTVYLRMNSLKPEDTAVYYCAADLYYTAYVAAADEYDYWGQGTLVTVSS
Take B2: in [4], the “Binding kinetics (SPR) ka (1/Ms), IL-23R” value amounted to 3e+06 M⁻¹ s⁻¹ and the “Binding kinetics (SPR) kd (1/s), IL-23R” value came out at 0.23 s⁻¹. Moreover, the “Binding T cells (FACS) EC50 (M)” value in assay [5] is “No fit”. Besides, the “IL-17 release PBMC D840 IC50 (M)” value in [6] is reported as “no fit”.
